This note sets out measurements from US20250231186A1.

The target of test [1] is MCC 88-103 peptide tethered to full-length I-E^k on M12 cells (mouse) (UniProt P04224). In words: cell coupling (CATS) with MCC M12 cells, flow cytometry. A general note: Flow cytometry measures light scatter and fluorescence of single cells or particles in a stream.
Test [2] concerns the target I-E^k MHCII on tethered pMHC-II expressing M12 cells. In words: cell coupling (CATS) of B10.A CD4+ T cells with pre-blocked pMHC+ M12 cells.
Test [3] deals with T102S altered peptide ligand of MCC tethered to full-length I-E^k on M12 cells (mouse) (UniProt P04224). In words: cell coupling (CATS) of B10.A CD4+ T cells with M12 cells pre-blocked with 20 µg/mL 14-4-4S; competitor: TCRs of B10.A CD4+ T cells.
Test [4] concerns the target mouse hemoglobin d allele Hb 64-76 peptide tethered to full-length I-E^k on M12 cells (mouse) (UniProt P04224). The test is described as above.
Test [5] deals with MCC 88-103 peptide tethered to full-length I-E^k on M12 cells (mouse) (UniProt P04224). The description is as above.
The target in test [6] is 5c.c7 TCR on CD4+ T cells from 5c.c7 TCR Rag KO mice (mouse). The experiment in a line: T102S tetramer staining of transferred 5c.c7 CD4+ T cells, flow cytometry.
The target of test [7] is T102S altered peptide ligand of MCC tethered to full-length I-E^k on M12 cells (mouse) (UniProt P04224). In words: cell coupling (CATS) of transferred 5c.c7 CD4+ T cells with T102S M12 cells, flow cytometry.
Test [8] deals with MCC 88-103 peptide tethered to full-length I-E^k on M12 cells (mouse) (UniProt P04224). The experiment in a line: cell coupling (CATS) of 5c.c7 CD4+ T cells with MCC M12 cells, Hb M12 as dump, flow cytometry.

The substance “5c.c7 TCR expressed on 58α^-β^- hybridoma cells (α chain fused C-terminally to mEGFP)” had a coupling percentage in test [1] of 30%.
Turning to 14-4-4S anti-I-E^k MHCII antibody, the fold lower relative coupling in blocked state in test [2] lay within 3 to 5 fold. Besides, the fold decrease in coupling when blocked in test [3] is 3 fold; in test [4], 4 fold; in test [5] it was 4 fold.
Regarding “T102S:I-E^k tetramer (from UniProt P22629 37-163; P04224 26-216) (peptide-MHC)”, the percentage of 5c.c7 CD4+ T cells identified in test [6] came to 0%.
As for “5c.c7 TCR on CD4+ T cells from 5c.c7 TCR Rag KO mice”, the percentage of 5c.c7 CD4+ T cells identified in test [7] stood at 70%. The substance further registered a coupling percentage in test [8] of 60 to 85%.
